Measurements from the supplement of paper PMC11865577.

System: TO-3-N3-2 (biotin conjugate)
Test: pull-down binding Z-score (relative to library population); higher = stronger binding
Details: RNA library: Library-2
Outline: (§1)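 Streptavidin beads bearing 100 pmol of a biotin-conjugated small molecule were incubated for 60 min at 25 °C with 1 μg of heat-folded, Cy5- or Cy3-end-labelled RNA library in phosphate/NaCl/KCl buffer. Hot SDS eluted the RNA that stayed bound after three washes, and this RNA was hybridised for 20 h at 55.5 °C to a DNA barcode microarray. Binding was expressed as a Z-score against the library mean and standard deviation, after subtraction of a beads-only signal and trimmed averaging of barcoded replicate probes.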

Row | Sequence | pull-down binding Z-score
1 | GGCUCGUCUGUGUUGCCAAUCGACUC [hsa-mir-1307] | 0.232
2 | GGCUCUGGGUCCUGCUCCUUAGAGCA [hsa-mir-2467] | -0.0911
3 | GGCUGCAGGCCCGGCCCCUCUC [hsa-mir-6787] | 0.126
4 | GGCUGCGUGCCACCCGGGCAGCU [hsa-mir-3194] | -0.183
5 | GGCUGCUGGAUUGAAUUAGCUGCA [hsa-mir-1286] | 0.133
6 | GGCUGGACAGGAGAGGGCUCACCCAGG [hsa-mir-6775] | 0.591
7 | GGCUGGCCCCCUGCUUCGUGCCCAUCC [hsa-mir-937] | 0.127
8 | GGCUGGGCAGGCGGAAAGAGGUCUGAACUGCCUCUGCC [hsa-mir-6791] | -0.0685
9 | GGCUGGGGUCACUGACUCUGCUUCCCCUGCC [hsa-mir-6799] | -0.0439
10 | GGCUGUGAGCUCUAGCAAUGCCC [hsa-mir-146b] | 0.158
11 | GGCUGUGGCCUAGGGCAAGCCACAAAGCC [hsa-mir-4642] | 0.245
12 | GGCUUUGGCAUCUAUGAAAGCC [hsa-mir-4755] | -0.302
13 | GGGAACUGGUGAGUUGUACAUAGAAAUGCUUUCUAACUCC [hsa-mir-4499] | -0.00162
14 | GGGAAGGAGAAGGGACGCUUCCC [hsa-mir-3127] | 0.167
15 | GGGACACAUUUGAGCCAAAUGUCCC [hsa-mir-610] | -0.331
16 | GGGACAUUGCGGAGAGGGUCUCACAUUGUCCC [hsa-mir-4646] | 0.999
17 | GGGACGUGUGAUGCUGUGCUUCCU [hsa-mir-3689f] | -0.0333
18 | GGGAGAGGGGCCCAGCUGACCCUCCUGUC [hsa-mir-6879] | 0.744
19 | GGGAGCAUGAACAAUGUUUCUCACUCCC [hsa-mir-3162] | -0.49
20 | GGGAGCGGCCCUCACAUUGAUGGCUCCU [hsa-mir-6727] | -0.052
21 | GGGAGGUAAGAAGUCUCUGACUCCU [hsa-mir-5193] | -0.261

Row | Sequence | pull-down binding Z-score
22 | GGGAGGUAUGAUAUCGUGGUUCCU [hsa-mir-3689e] | 0.567
23 | GGGAGUGGUUCCAUCACGCCUCCUCAC [hsa-mir-483] | -0.147
24 | GGGAUAUUUGCAUUAUACUUAUCC [hsa-mir-5009] | 0.015
25 | GGGAUGAGCCCUGGCUCUGUUUCCUAG [hsa-mir-378h] | -0.0124
26 | GGGCAGAAAUAGAUGGCCU [hsa-mir-4270] | 0.429
27 | GGGCAGGGAGGGCAGGGCAGGCUCUGGGGUGGGGGGUCUGUGAGUCAGCCACGGCUC [hsa-mir-4516] | 7.72
28 | GGGCAGGGAGUCAGAGGGGACCGCCC [hsa-mir-4740] | 1.93
29 | GGGCAUUCCGGAUAGGCCGAGAAAGUGUUG [hsa-mir-6723] | 0.568
30 | GGGCCAGUCUGACCGUUUCUAGGCG [hsa-mir-551a] | 0.662
31 | GGGCCAUGUCUGUGAGGGCCCA [hsa-mir-4294] | 0.0026
32 | GGGCCCCAAGACUCGGGGUUU [hsa-mir-4651] | -0.00221
33 | GGGCCGUGCACCCGUGGGCCCC [hsa-mir-1915] | 0.0124
34 | GGGCCUGGGUUUCUGAACAC [hsa-mir-196a-1] | 0.334
35 | GGGCGCCGGCGGCCGGGAGAUCCGCGCUUCCUGAAUCCCGGCCGGCCCGCCCGGCGCCC [hsa-mir-4497] | -0.00137
36 | GGGCGGAACACCCAGCCCC [hsa-mir-4417] | -0.246
37 | GGGCGUGGUGGACAGCGAUGCAUCCC [hsa-mir-6803] | 0.187
38 | GGGCUCGUGAUGGCUGGUGGGCCC [hsa-mir-345] | -0.191
39 | GGGCUGCCCGGGCCGGUCGACCAGCGCGCCGUAGCUCC [hsa-mir-6724-2_6724-3_6724-1_6724-4] | -0.0157
40 | GGGCUUUCUGGUUUUAUUUUAAGCCC [hsa-mir-186] | 0.0672
41 | GGGGAGAGGGACACGCCCUGGGCUCUGCCCAGGGUGCAGCCGGACUGACUGAG [hsa-mir-1225] | 1.1
42 | GGGGAUGGACUGGAAGUGGGCAGCAUGGAGCUGACCUUCAUCAUGGCUUGGCCAACAUAAUGCCUC [hsa-mir-1236] | 1.33

System: TO-3-N3 (biotin conjugate)
Test: as above
Details: RNA library: Library-2
Outline: as §1

Row | Sequence | pull-down binding Z-score
43 | GGCCGUUUGAGAUGUCC [hsa-mir-3674] | -0.181
44 | GGCCUGGGAUUCCUGCCUUCUAGGUC [hsa-mir-8078] | 0.742
45 | GGCGACUGGUGUCUAAUUUGUUUGUC [hsa-mir-4429] | -0.313
46 | GGCGCACAGCAGACCCUGCAAUCAUGCC [hsa-mir-3164] | 0.966
47 | GGCGCGCGAGGCUCCAGGCUCC [hsa-mir-3197] | 0.322
48 | GGCGCUGGGACCCCACUAGGGUGGCGCC [hsa-mir-4488] | 1.33
49 | GGCGCUGUCUUGAGACAUUCGCGCAGUGCA [hsa-mir-3177] | -0.111
50 | GGCGCUUCUCCUUCUGAACAGAGCGCU [hsa-mir-1251] | -0.462
51 | GGCGGAGGCAGGCGUGACCGUUUGCC [hsa-mir-4632] | 0.432
52 | GGCGGCUCGGAGUACCUCUGCCGCC [hsa-mir-6869] | 0.86
53 | GGCGGGCGGCGGUGCCCGUC [hsa-mir-4449] | 0.739
54 | GGCGGUGAAGCUCC [hsa-mir-4532] | -0.22
55 | GGCGUGGACAACUUGCU [hsa-mir-3943] | -0.271
56 | GGCUCCUGGCGCUGAUGCC [hsa-mir-6886] | 0.85
57 | GGCUCGUCUGUGUUGCCAAUCGACUC [hsa-mir-1307] | 0.723
58 | GGCUCUGGGUCCUGCUCCUUAGAGCA [hsa-mir-2467] | 0.259
59 | GGCUGCAGGCCCGGCCCCUCUC [hsa-mir-6787] | 0.378
60 | GGCUGCGUGCCACCCGGGCAGCU [hsa-mir-3194] | -0.341
61 | GGCUGCUGGAUUGAAUUAGCUGCA [hsa-mir-1286] | 0.023
62 | GGCUGGACAGGAGAGGGCUCACCCAGG [hsa-mir-6775] | 1.16
63 | GGCUGGCCCCCUGCUUCGUGCCCAUCC [hsa-mir-937] | 0.211
64 | GGCUGGGCAGGCGGAAAGAGGUCUGAACUGCCUCUGCC [hsa-mir-6791] | -0.139
65 | GGCUGGGGUCACUGACUCUGCUUCCCCUGCC [hsa-mir-6799] | -0.14
66 | GGCUGUGAGCUCUAGCAAUGCCC [hsa-mir-146b] | 0.251
67 | GGCUGUGGCCUAGGGCAAGCCACAAAGCC [hsa-mir-4642] | 0.0577
68 | GGCUUUGGCAUCUAUGAAAGCC [hsa-mir-4755] | 0.45
69 | GGGAACUGGUGAGUUGUACAUAGAAAUGCUUUCUAACUCC [hsa-mir-4499] | -0.123
70 | GGGAAGGAGAAGGGACGCUUCCC [hsa-mir-3127] | 0.262
